Data: patent US6025158A, “Nucleic acids encoding humanized anti-IL-8 monoclonal antibodies” (Genentech, Inc., dated 2000)
Residue numbers refer to the chain shown, from its start.

Experiments:
[1] = system: human monomeric IL-8; experiment: human monomeric IL-8 mediated neutrophil chemotaxis; format: cell-based
Method: Human neutrophils were isolated, counted and resuspended at 5×10^6 cells/ml in Hank's balanced salt solution (abbreviated HBSS; without calcium and magnesium) with 0.1% bovine serum albumin. The neutrophils were labeled by adding calcein AM (Molecular Probe, Eugene, Oreg.) at a final concentration of 2.0 μM. Following a 30 minute incubation at 37° C., cells were washed twice with HBSS-BSA and resuspended at 5×10^6 cells/ml.
Chemotaxis experiments were carried out in a Neuro Probe (Cabin John, Md.) 96-well chamber, model MBB96. Experimental samples (buffer only control, IL-8 alone or IL-8+Fabs) were loaded in a Polyfiltronics 96-well View plate (Neuro Probe Inc.) placed in the lower chamber. […]
The relative number of neutrophils migrating through the filter (Neutrophil migration index) was determined by measuring fluorescence intensity of the filter and the fluorescence intensity of the contents of the lower chamber and adding the two values together. Fluorescence intensity was measured with a CytoFluor 2300 fluorescent plate reader (Millipore Corp. Bedford, Mass.) configured to read a Corning 96-well plate using the 485-20 nm excitation filter and a 530-25 emission filter, with the sensitivity set at 3.

[2] = biological target: IL-8 (Homo sapiens, UniProt P10145); experiment: KinEXA equilibrium and kinetic measurements; format: binding; settings: read-out: equilibrium constant (Kd)
IL-8, sequence (P10145 28-99 limits assumed): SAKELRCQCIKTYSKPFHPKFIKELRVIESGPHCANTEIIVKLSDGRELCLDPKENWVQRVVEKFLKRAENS
Method: The beads were resuspended in assay buffer (0.1% bovine serum albumin in PBS) to a final volume of 30 ml.
The equilibrium constant (Kd) was calculated using the software provided by Sapidyne Instruments Inc.

B1: F(ab)-9: humanized variant, F(ab)-6 with GluH6Gln (protein)
light: DIQMTQSPSSLSASVGDRVTITCRSSQSLVHGIGNTYLHWYQQKPGKAPKLLIYKVSNRFSGVPSRFSGSGSGTDFTLTISSLQPEDFATYYCSQSTHVPLTFGQGTKVEIKRTVAAPSVFIFPPSDEQLKSGTASVVCLLNNFYPREAKVQWKVDNALQSGNSQESVTEQDSKDSTYSLSSTLTLSKADYEKHKVYACEVTHQGLSSPVTKSFNRGEC
heavy: EVQLVQSGGGLVQPGGSLRLSCAASGYSFSSHYMHWVRQAPGKGLEWVGYIDPSNGETTYNQKFKGRFTLSRDNSKNTAYLQMNSLRAEDTAVYYCARGDYRYNGDWFFDVWGQGTLVTVSSASTKGPSVFPLAPSSKSTSGGTAALGCLVKDYFPEPVTVSWNSGALTSGVHTFPAVLQSSGLYSLSSVVTVPSSSLGTQTYICNVNHKPSNTKVDKKVEPKSCDKTHT
For B1, which IC50 [1] is on record?
The IC50 was ~15 nM.

B2: 6G4V11N35E IgG1: full length IgG1 version of humanized anti-IL8 variant 6G4V11N35E (protein)
light: B1 light with N35E
heavy: B1 heavy
B2 was tested. Which Kd [2] did it give?
The Kd was ~0.049 nM.
